Laboratory results taken from patent publication US20060009379A1 (GOVERNMENT OF THE UNITED STATES OF AMERICAN AS REPRESENTED …, published 2006).

Molecular target: T1, GST-p53 fusion protein (UniProt P04637 1-393)
T1 construct: not shown: glutathione S-transferase (GST) fusion partner
Test: GST-p53 pull-down of HA-tagged protein from H1299 lysate, α-HA Western blot
Description: FIG. 6F is a digital image of mapping of p53-interacting region in nucleostemin by GST pull-down assay. […] The retained proteins (bound) were detected by α-HA Western blot and expressed as ratios to the input.
To map the interacting region between nucleostemin and p53, HA-tagged mutant proteins were expressed in H1299 cells and incubated with agarose-bound GST-p53 fusion protein in GST pull-down experiments. The amount of mutant proteins retained by GST-p53 fusion was measured by Western blot and presented as the ratio to the input proteins.

T1 sequence (P04637 whole entry, the tested form may be a part): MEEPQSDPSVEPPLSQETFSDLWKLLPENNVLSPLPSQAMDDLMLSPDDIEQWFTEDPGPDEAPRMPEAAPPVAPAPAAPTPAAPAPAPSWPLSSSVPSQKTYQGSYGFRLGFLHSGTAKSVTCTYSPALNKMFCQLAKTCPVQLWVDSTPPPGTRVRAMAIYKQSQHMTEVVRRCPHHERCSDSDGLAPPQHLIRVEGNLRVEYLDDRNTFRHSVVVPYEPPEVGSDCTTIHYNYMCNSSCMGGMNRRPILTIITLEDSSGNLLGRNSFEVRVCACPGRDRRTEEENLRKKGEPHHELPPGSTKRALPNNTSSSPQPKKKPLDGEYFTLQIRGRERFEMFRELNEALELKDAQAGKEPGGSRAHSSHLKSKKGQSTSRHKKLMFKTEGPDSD

| Binder | fold reduction of the amount bound, against wild-type nucleostemin [fold] | further results |
| --- | --- | --- |
| HA-tagged nucleostemin mutant dA (deletion of the acidic domain, codons 460-503) (other, not shown: HA (hemagglutinin) tag) MKRPKLKKASKRMTCHKRYKIQKKVREHHRKLRKEAKKRGHKKPKKDPGVPNSAPFKEALLREAELRKQQLEELKQQQKLDRQKEQERKRKLEISPDDEQSNVETQEESDEPKIKKAKSGKQNPKKLHCQELKKVIEASDIVLEVLDARDPLGCRCPQVEEAVIQSGCKKLVLVLNKSDLVPKENLENWLTYLNKELPTVVFKASTNLKNRKKTFKIKKKVVPFQSKLCCGKEALWKLLGGFQQSCGKGVQVGVVGFPNVGKSSIINSLKQERICSVGVSMGLTRSMQIVPLDKQITIIDSPCFIISPCNSPAALALRSPASIEVLRPLEAASAILSQADSQQVVLKYTVPGYKDSLDFFTKLAQRRGLHQKGGSPNVESAAKLLWSEWTGASLGYYCHPPASWNHSPHFNENITAIMKRGFNLEELEKNNAHSIQVLKGPHLTNKILFRSSGLTNGILMSPGQSTASKPSDRSFILDKMSEEDDAYDFTTDYI | 1.5 | – |
| HA-tagged nucleostemin mutant dB (deletion of the basic domain, codons 2-46) (other, not shown: HA (hemagglutinin) tag) MDPGVPNSAPFKEALLREAELRKQQLEELKQQQKLDRQKEQERKRKLEISPDDEQSNVETQEESDEPKIKKAKSGKQNPKKLHCQELKKVIEASDIVLEVLDARDPLGCRCPQVEEAVIQSGCKKLVLVLNKSDLVPKENLENWLTYLNKELPTVVFKASTNLKNRKKTFKIKKKVVPFQSKLCCGKEALWKLLGGFQQSCGKGVQVGVVGFPNVGKSSIINSLKQERICSVGVSMGLTRSMQIVPLDKQITIIDSPCFIISPCNSPAALALRSPASIEVLRPLEAASAILSQADSQQVVLKYTVPGYKDSLDFFTKLAQRRGLHQKGGSPNVESAAKLLWSEWTGASLGYYCHPPASWNHSPHFNENITAIMKRGFNLEELEKNNAHSIQVLKGPHLTNKILFRSSGLTNGILEEKDIPEESPKQTEDQQDGDDQEHVTGEKNAEISDVTPVEETREMSPGQSTASKPSDRSFILDKMSEEDDAYDFTTDYI | – | binding of nucleostemin to p53 (retained protein, ratio to input): 17% |
| HA-tagged nucleostemin mutant dG4 (deletion of the G4 GTP-binding motif, codons 177-180) (other, not shown: HA (hemagglutinin) tag) MKRPKLKKASKRMTCHKRYKIQKKVREHHRKLRKEAKKRGHKKPKKDPGVPNSAPFKEALLREAELRKQQLEELKQQQKLDRQKEQERKRKLEISPDDEQSNVETQEESDEPKIKKAKSGKQNPKKLHCQELKKVIEASDIVLEVLDARDPLGCRCPQVEEAVIQSGCKKLVLVLNVPKENLENWLTYLNKELPTVVFKASTNLKNRKKTFKIKKKVVPFQSKLCCGKEALWKLLGGFQQSCGKGVQVGVVGFPNVGKSSIINSLKQERICSVGVSMGLTRSMQIVPLDKQITIIDSPCFIISPCNSPAALALRSPASIEVLRPLEAASAILSQADSQQVVLKYTVPGYKDSLDFFTKLAQRRGLHQKGGSPNVESAAKLLWSEWTGASLGYYCHPPASWNHSPHFNENITAIMKRGFNLEELEKNNAHSIQVLKGPHLTNKILFRSSGLTNGILEEKDIPEESPKQTEDQQDGDDQEHVTGEKNAEISDVTPVEETREMSPGQSTASKPSDRSFILDKMSEEDDAYDFTTDYI | – | fold increase of the amount bound, against wild-type nucleostemin: 1.5 fold |
| HA-tagged nucleostemin mutant dCC (deletion of the coiled-coil domain, codons 61-87) (other, not shown: HA (hemagglutinin) tag) MKRPKLKKASKRMTCHKRYKIQKKVREHHRKLRKEAKKRGHKKPKKDPGVPNSAPFKEALRKRKLEISPDDEQSNVETQEESDEPKIKKAKSGKQNPKKLHCQELKKVIEASDIVLEVLDARDPLGCRCPQVEEAVIQSGCKKLVLVLNKSDLVPKENLENWLTYLNKELPTVVFKASTNLKNRKKTFKIKKKVVPFQSKLCCGKEALWKLLGGFQQSCGKGVQVGVVGFPNVGKSSIINSLKQERICSVGVSMGLTRSMQIVPLDKQITIIDSPCFIISPCNSPAALALRSPASIEVLRPLEAASAILSQADSQQVVLKYTVPGYKDSLDFFTKLAQRRGLHQKGGSPNVESAAKLLWSEWTGASLGYYCHPPASWNHSPHFNENITAIMKRGFNLEELEKNNAHSIQVLKGPHLTNKILFRSSGLTNGILEEKDIPEESPKQTEDQQDGDDQEHVTGEKNAEISDVTPVEETREMSPGQSTASKPSDRSFILDKMSEEDDAYDFTTDYI | 1.5 | – |
